In IntAct's records for PubMed 22927646:

B1: Isoform 2 of Acid ceramidase (Homo sapiens), Q13510-2 (parent)
chain: MNCCIGLGEKARGSHRASYPSLSALFTEASILGFGSFAVKAQWTEDCRKSTYPPSGPTYRGAVPWYTINLDLPPYKRWHELMLDKAPVLKVIVNSLKNMINTFVPSGKIMQVVDEKLPGLLGNFPGPFEEEMKGIAAVTDIPLGEIISFNIFYELFTICTSIVAEDKKGHLIHGRNMDFGVFLGWNINNDTWVITEQLKPLTVNLDFQRNNKTVFKASSFAGYVGMLTGFKPGLFSLTLNERFSINGGYLGILEWILGKKDVMWIGFLTRTVLENSTSYEEAKNLLTKTKILAPAYFILGGNQSGEGCVITRDRKESLDVYELDAKQGRWYVVQTNYDRWKHPFFLDDRRTPAKMCLNRTSQENISFETMYDVLSTKPVLNKLTVYTTLIDVTKGQFETYLRDCPDPCIGW

Variants of: B1
Conditions: with stf1_human NR5A1, Q13285
Sequence of stf1_human NR5A1, Q13285 (Q13285 whole entry): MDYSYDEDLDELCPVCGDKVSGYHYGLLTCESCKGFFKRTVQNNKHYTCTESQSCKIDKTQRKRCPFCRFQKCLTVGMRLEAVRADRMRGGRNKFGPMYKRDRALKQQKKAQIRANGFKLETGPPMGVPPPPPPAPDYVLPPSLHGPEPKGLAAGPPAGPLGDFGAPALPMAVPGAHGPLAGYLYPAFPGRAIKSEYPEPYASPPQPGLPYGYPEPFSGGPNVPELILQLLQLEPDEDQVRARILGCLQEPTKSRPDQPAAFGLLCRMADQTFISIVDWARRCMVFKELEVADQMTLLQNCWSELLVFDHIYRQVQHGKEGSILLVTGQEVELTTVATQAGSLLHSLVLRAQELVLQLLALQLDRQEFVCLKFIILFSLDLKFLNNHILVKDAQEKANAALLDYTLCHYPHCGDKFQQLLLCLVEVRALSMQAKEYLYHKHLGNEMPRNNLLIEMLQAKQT

Row | effect of a mutation on the interaction | Variant
1 | disrupting interaction strength | MNCCIGLGEKARGSHRASYPSASAAFTEASILGFGSFAVKAQWTEDCRKSTYPPSGPTYRGAVPWYTINLDLPPYKRWHELMLDKAPVLKVIVNSLKNMINTFVPSGKIMQVVDEKLPGLLGNFPGPFEEEMKGIAAVTDIPLGEIISFNIFYELFTICTSIVAEDKKGHLIHGRNMDFGVFLGWNINNDTWVITEQLKPLTVNLDFQRNNKTVFKASSFAGYVGMLTGFKPGLFSLTLNERFSINGGYLGILEWILGKKDVMWIGFLTRTVLENSTSYEEAKNLLTKTKILAPAYFILGGNQSGEGCVITRDRKESLDVYELDAKQGRWYVVQTNYDRWKHPFFLDDRRTPAKMCLNRTSQENISFETMYDVLSTKPVLNKLTVYTTLIDVTKGQFETYLRDCPDPCIGW [L22A;L25A]
